# Laboratory results as given in IntAct's records for PubMed 9528852.
# B1: Ubiquitin carboxyl-terminal hydrolase BAP1 (Mus musculus), Q99PU7 (parent)
# chain: MNKGWLELESDPGLFTLLVEDFGVKGVQVEEIYDLQSKCQGPVYGFIFLFKWIEERRSRRKVSTLVDDTSVIDDDIVNNMFFAHQLIPNSCATHALLSVLLNCSNVDLGPTLSRMKDFTKGFSPESKGYAIGNAPELAKAHNSHARPEPRHLPEKQNGLSAVRTMEAFHFVSYVPITGRLFELDGLKVYPIDHGPWGEDEEWTDKARRVIMERIGLATAGEPYHDIRFNLMAVVPDRRIKYETRLHVLKVNRQTVLEALQQLIRVTQPELIQTHKSQESQLPEESKPASSKSPLGLEAGRTPVASECTQTDGAEEVAGSCPQTTTHSPPSKCKLVVKPPGSSLNGVPPNPAPIVQRLPAFLDNHNYAKSPMQEEEDLAAGVGRSRVPVRAPQQYSEDEDDYEDEDEDVQNTNPAIRYKRKGTGKPGSLSNSSDGQLSVLQPNTINVLTEKLQESQKDLSVPLSIKTSSGAGSPAVAVPTHSQPSPTPSNESTDTASEIGSAFNSPLRSPIRSANPTRPSSPVTSHISKVLFGEDDSLLRVDCIRYNRAVRDLGPVISTGLLHLAEDGVLSPLALTEGGKGSSPSTRSSQGSQGSSGLEEKEVVEVTESRDKPGLNRSSEPLSGEKYSPKELLALLKCVEAEIANYEACLKEEVEKRKKFKIDDQRRTHNYDEFICTFISMLAQEGMLANLVEQNISVRRRQGVSIGRLHKQRKPDRRKRSRPYKAKRQ
# Variants of: B1
# Settings: with brca1_human BRCA1, P38398
# brca1_human BRCA1, P38398, sequence (P38398 whole entry, looked up): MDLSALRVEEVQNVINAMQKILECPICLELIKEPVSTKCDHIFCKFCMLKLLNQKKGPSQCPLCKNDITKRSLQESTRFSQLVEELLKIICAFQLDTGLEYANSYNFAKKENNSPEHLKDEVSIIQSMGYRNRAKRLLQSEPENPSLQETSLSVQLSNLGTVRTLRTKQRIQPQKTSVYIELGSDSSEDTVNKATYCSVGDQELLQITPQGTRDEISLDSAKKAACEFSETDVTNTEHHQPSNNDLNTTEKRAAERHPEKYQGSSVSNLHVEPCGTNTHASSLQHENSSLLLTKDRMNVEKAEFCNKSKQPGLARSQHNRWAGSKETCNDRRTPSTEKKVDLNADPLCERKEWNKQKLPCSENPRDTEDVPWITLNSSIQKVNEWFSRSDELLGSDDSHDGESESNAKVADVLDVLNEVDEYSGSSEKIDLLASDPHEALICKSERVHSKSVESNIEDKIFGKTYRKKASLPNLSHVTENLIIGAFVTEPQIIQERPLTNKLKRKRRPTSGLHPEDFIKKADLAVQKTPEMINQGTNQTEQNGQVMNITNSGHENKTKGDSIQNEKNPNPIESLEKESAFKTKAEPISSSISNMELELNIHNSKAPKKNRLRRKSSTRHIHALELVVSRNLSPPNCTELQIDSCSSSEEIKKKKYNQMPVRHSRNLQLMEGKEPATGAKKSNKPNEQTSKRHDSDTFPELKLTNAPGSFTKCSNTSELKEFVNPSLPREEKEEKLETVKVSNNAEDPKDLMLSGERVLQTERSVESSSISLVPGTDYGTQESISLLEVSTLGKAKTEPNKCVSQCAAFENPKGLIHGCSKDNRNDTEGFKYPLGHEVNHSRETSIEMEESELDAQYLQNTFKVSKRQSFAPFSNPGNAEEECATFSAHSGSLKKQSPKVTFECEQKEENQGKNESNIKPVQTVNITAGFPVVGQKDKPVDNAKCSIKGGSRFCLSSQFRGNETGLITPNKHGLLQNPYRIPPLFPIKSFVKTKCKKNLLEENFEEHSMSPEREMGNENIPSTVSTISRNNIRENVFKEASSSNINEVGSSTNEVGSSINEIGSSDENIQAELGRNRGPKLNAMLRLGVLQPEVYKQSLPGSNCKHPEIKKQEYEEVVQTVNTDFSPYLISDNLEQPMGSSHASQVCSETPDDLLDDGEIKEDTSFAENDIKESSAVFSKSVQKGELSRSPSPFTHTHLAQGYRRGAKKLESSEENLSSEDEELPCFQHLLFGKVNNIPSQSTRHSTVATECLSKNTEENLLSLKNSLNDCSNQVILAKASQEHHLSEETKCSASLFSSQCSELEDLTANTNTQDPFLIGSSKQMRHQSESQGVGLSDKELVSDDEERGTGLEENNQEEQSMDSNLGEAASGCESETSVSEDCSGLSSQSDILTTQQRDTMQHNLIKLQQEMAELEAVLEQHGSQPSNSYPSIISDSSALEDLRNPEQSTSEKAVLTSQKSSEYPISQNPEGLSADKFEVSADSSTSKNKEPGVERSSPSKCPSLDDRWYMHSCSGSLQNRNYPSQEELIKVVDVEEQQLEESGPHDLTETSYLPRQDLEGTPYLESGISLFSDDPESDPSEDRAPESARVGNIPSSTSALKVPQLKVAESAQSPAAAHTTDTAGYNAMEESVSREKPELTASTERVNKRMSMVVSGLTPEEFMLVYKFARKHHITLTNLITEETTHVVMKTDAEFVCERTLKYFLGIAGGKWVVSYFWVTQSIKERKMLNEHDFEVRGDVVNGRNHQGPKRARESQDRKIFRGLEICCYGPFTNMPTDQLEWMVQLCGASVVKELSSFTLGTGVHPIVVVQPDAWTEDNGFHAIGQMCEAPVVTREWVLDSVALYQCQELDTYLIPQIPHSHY
row,effect of a mutation on the interaction,Variant
1,disrupting interaction,L690P
